# Reference: patent US20120184713
# T1: Peptide4, OPN-ASARM derivative with the other two Ser residues changed to Ala
# T1 chain: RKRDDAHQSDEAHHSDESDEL
# T2: Peptide1, OPN-ASARM peptide (human Osteopontin 115Asp to 132Leu with N-terminal Arg-Lys-Arg)
# T2 chain: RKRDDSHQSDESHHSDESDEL
# T3: Peptide3, OPN-ASARM derivative with the three G-CK consensus Ser residues changed to Ala
# T3 chain: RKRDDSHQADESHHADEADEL
# T4: DMP1:FLAG (FLAG epitope-tagged mouse dentin matrix protein 1, affinity purified), O55188
# T4 chain: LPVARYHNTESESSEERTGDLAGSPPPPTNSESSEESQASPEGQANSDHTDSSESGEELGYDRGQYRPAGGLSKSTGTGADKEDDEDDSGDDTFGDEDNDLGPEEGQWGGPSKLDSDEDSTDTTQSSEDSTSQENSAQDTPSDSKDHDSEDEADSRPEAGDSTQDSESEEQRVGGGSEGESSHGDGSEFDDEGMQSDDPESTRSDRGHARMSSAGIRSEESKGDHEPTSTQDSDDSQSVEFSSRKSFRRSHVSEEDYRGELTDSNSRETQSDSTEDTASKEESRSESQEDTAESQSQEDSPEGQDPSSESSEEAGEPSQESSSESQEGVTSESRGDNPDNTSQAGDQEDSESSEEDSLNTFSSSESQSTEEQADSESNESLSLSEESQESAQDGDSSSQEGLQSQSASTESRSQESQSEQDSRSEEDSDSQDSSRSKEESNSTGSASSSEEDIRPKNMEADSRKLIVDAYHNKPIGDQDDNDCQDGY
# T5: Fat2-3:FLAG (affinity-purified cadherin domains of Drosophila Fat), P33450
# T5 chain: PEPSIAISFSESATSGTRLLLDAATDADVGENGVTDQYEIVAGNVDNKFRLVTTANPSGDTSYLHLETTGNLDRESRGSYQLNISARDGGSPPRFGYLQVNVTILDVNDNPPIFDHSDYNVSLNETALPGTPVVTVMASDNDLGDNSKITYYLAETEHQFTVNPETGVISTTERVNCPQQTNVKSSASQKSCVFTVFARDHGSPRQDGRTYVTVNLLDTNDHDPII
# T6: BSP:FLAG (FLAG epitope-tagged mouse bone sialoprotein, affinity purified), Q61711
# T6 chain: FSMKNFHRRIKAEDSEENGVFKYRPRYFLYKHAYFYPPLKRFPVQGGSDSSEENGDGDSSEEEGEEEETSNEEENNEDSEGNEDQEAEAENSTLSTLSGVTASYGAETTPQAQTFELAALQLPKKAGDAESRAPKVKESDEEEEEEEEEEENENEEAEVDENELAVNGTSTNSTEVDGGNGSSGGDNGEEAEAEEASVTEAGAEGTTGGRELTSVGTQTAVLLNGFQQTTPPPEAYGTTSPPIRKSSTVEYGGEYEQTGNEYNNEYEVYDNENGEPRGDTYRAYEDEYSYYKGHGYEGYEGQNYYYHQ
# T7: Peptide2, OPN-ASARM derivative with all five Ser residues replaced by Ala
# T7 chain: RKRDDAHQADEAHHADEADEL
# B1: FAM20C:V5 (V5-epitope tagged mouse FAM20C, affinity purified from conditioned medium of HEK293T cells) (protein)
# chain: DFSSDPASNLTSHSLEKLPSAAEPVDHAPRGQEPRSPPPRDPAHRPLLRDPGPRPRVPPPGPSGDGSLLAKLFEHPLYQGAVPPLTEDDVLFNVNSDIRFNPKAAENPDWPHEGAEGAEFLPTGEAAVNLYPNWLKFHIGINRYELYSRHNPAIDALLRDLGSQKITSVAMKSGGTQLKLIMTFQNYGQALFKPMKQTREQETPPDFFYFSDYERHNAEIAAFHLDRILDFRRVPPVAGRMINMTKEIRDVTRDKKLWRTFFVSPANNICFYGECSYYCSTEHALCGRPDQIEGSLAAFLPDLSLAKRKTWRNPWRRSYHKRKKAEWEVDPDYCEEVKQTPPYDSGHRILDIMDMTVFDFLMGNMDRHHYETFEKFGNETFIIHLDNGRGFGKYSHDELSILAPLHQCCRIRRSTYLRLQLLAKEEHKLSLLMAESLQHDKVAPVLYQLHLEALDRRLRIVLQAVRDCVEKDGLSSVVEDDLATEHRASTER
# Tests used:
# [1] = target: T1, Peptide4, OPN-ASARM derivative with the …
# [2] = target: dephosphorylated alpha-Casein (Sigma)
# [3] = target: T2, Peptide1, OPN-ASARM peptide (human …)
# [4] = target: T3, Peptide3, OPN-ASARM derivative with the …
# [5] = target: T4, DMP1:FLAG (FLAG epitope-tagged mouse …)
# [6] = target: T5, Fat2-3:FLAG (affinity-purified cadherin …)
# [7] = target: T6, BSP:FLAG (FLAG epitope-tagged mouse …)
# [8] = target: Myelin Basic Protein (NEB)
# [9] = target: T7, Peptide2, OPN-ASARM derivative with all …
# [10] = target: OPN:FLAG (FLAG epitope-tagged mouse osteopontin, affinity purified), P10923
# Sequence of OPN:FLAG (FLAG epitope-tagged mouse osteopontin, affinity purified), P10923 (P10923 17-294): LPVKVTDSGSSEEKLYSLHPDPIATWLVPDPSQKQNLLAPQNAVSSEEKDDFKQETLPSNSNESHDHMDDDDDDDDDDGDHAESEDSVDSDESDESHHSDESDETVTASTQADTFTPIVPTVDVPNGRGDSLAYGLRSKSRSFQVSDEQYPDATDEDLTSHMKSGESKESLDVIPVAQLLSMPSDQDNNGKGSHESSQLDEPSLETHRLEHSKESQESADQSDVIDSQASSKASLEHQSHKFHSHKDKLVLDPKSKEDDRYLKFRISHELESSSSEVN
protein,measurement,setting,value
B1,in vitro kinase assay with peptide substrate,[1],a derivative in which the other two Ser residues were changed to Ala (OPN-ASARM^2S-A) was still efficiently phosphorylated by FAM20C
same,"Michaelis constant (Km), in vitro kinase assay",[2],a Michaelis constant (Km) of FAM20C for Casein of 1.5 µM
same,in vitro kinase assay (32P transfer),[2],Dephosphorylated Casein was phosphorylated by purified FAM20C in vitro
same,in vitro kinase assay with peptide substrate,[3],In vitro kinase reactions confirmed that OPN-ASARM is a FAM20C substrate
same,in vitro kinase assay with peptide substrate,[4],A peptide in which only the three G-CK concensus sites were changed to Ala (OPN-ASARM^3S-A) was phosphorylated much less effectively
same,in vitro kinase assay (32P transfer),[5],"Transfer of ^32P onto OPN, BSP, and DMP1 was observed in the presence of FAM20C:V5"
same,in vitro kinase assay (32P transfer),[6],"neither Myelin basic protein ... nor cadherin domains of Fat that are substrates for Fj, were detectably phosphorylated by FAM20C"
same,in vitro kinase assay (32P transfer),[7],"Transfer of ^32P onto OPN, BSP, and DMP1 was observed in the presence of FAM20C:V5"
same,in vitro kinase assay (32P transfer),[8],neither Myelin basic protein ... nor cadherin domains of Fat ... were detectably phosphorylated by FAM20C
same,in vitro kinase assay with peptide substrate,[9],a derivative with all five Ser residues replaced by Ala (OPN-ASARM^5S-A) was not phosphorylated
same,in vitro kinase assay (32P transfer),[10],"Transfer of ^32P onto OPN, BSP, and DMP1 was observed in the presence of FAM20C:V5"
